± gives the standard deviation.
Assay: collision cross section of modified peptide (TIMS, N2, iRT-aligned); higher = larger / more extended gas-phase ion
Outline: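 Collision cross section was derived from the Mason-Schamp equation. Each value averages 1–3 technical replicates of the most abundant feature per charge state, measured on a timsTOF Pro/HT in dda-PASEF mode (nitrogen, ~2.4 mbar) after a 120-min nanoflow C18 gradient at 60 °C. Synthetic peptide pools (~100 fmol/µL in 2% acetonitrile/0.1% formic acid, iRT standard spiked 1:40) were identified with MaxQuant, and 1/K0 was calibrated with three reference ions and aligned run-wise to the median iRT peptide deviation.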

[1] = charge state: 2, modification: Dimethyl (K)
[2] = charge state: 3, modification: Dimethyl (K)
[3] = charge state: 2, modification: Propionyl
[4] = charge state: 2, modification: Phospho (Y)
[5] = charge state: 3, modification: Trimethyl (K)
[6] = charge state: 2, modification: Acetyl (K)
[7] = charge state: 3, modification: Acetyl (K)
[8] = charge state: 2, modification: Succinyl
[9] = charge state: 3, modification: Succinyl
[10] = charge state: 2, modification: Formyl
[11] = charge state: 3, modification: Formyl
[12] = charge state: 2, modification: Malonyl
[13] = charge state: 2, modification: Biotin
[14] = charge state: 2, modification: Trimethyl (K)
[15] = charge state: 2, modification: hydroxyisobutyryl
[16] = charge state: 3, modification: hydroxyisobutyryl
[17] = charge state: 2, modification: Nitro (Y)
[18] = charge state: 2, modification: Citrullination (R)
[19] = charge state: 2, modification: Crotonyl
[20] = charge state: 3, modification: Crotonyl
[21] = charge state: 3, modification: Glutarylation
[22] = charge state: 2, modification: Hydroxyproline
[23] = charge state: 2, modification: Glutarylation
[24] = charge state: 3, modification: Biotin
[25] = charge state: 2, modification: Methyl (K)
[26] = charge state: 3, modification: Methyl (K)
[27] = charge state: 3, modification: Citrullination (R)
[28] = charge state: 2, modification: Butyryl
[29] = charge state: 3, modification: Butyryl

Sequence: TLQKQSVVYGGK [_TLQK(Dimethyl (K))QSVVYGGK_]
- collision cross section [1]: 397.97 ± 0.88 Å²
- collision cross section [2]: 459.07 ± 1.6 Å²

Sequence: SGKFTQQDIDEAK [_SGK(Propionyl)FTQQDIDEAK_]
- collision cross section [3]: 414.71 ± 0.97 Å²

Sequence: GVQYLNEIK [_GVQY(Phospho (Y))LNEIK_]
- collision cross section [4]: 357.38 ± 0.065 Å²

Sequence: VLDSGAPIKIPVGPETLGR [_VLDSGAPIK(Trimethyl (K))IPVGPETLGR_]
- collision cross section [5]: 508.9 ± 0.87 Å²

Sequence: SGNLTEDDKHNNAK [_SGNLTEDDK(Acetyl (K))HNNAK_]
- collision cross section [6]: 418.78 ± 2.4 Å²
- collision cross section [7]: 469.35 ± 2.1 Å²

Sequence: AAINQKLIETGER [_AAINQK(Succinyl)LIETGER_]
- collision cross section [8]: 409.41 ± 0.25 Å²
- collision cross section [9]: 475.95 ± 0.68 Å²

Sequence: GTITVSAQELKDNR [_GTITVSAQELK(Formyl)DNR_]
- collision cross section [10]: 413.69 ± 0.19 Å²
- collision cross section [11]: 471.67 ± 1.8 Å²

Sequence: DAIHFYNKSLAEHR [_DAIHFYNK(Dimethyl (K))SLAEHR_]
- collision cross section [2]: 497.01 ± 1.6 Å²

Sequence: TPNLYIYSKK [_TPNLYIYSK(Malonyl)K_]
- collision cross section [12]: 383.2 ± 0.78 Å²

Sequence: SGNLTEDDKHNNAK [_SGNLTEDDK(Succinyl)HNNAK_]
- collision cross section [8]: 424.64 ± 1.1 Å²
- collision cross section [9]: 478.73 ± 2.5 Å²

Sequence: SDDESSQKDIK [_SDDESSQK(Biotin)DIK_]
- collision cross section [13]: 393.46 Å²

Sequence: VLDSGAPIKIPVGPETLGR [_VLDSGAPIK(Acetyl (K))IPVGPETLGR_]
- collision cross section [6]: 463.33 ± 3.4 Å²
- collision cross section [7]: 505.97 Å²

Sequence: KFGVLSDNFK [_K(Propionyl)FGVLSDNFK_]
- collision cross section [3]: 374.07 ± 0.33 Å²

Sequence: ALASIDSKLNQAK [_ALASIDSK(Trimethyl (K))LNQAK_]
- collision cross section [14]: 417.47 ± 0.6 Å²
- collision cross section [5]: 444.8 ± 1.8 Å²

Sequence: VGLQVVAVKAPGFGDNR [_VGLQVVAVK(Acetyl (K))APGFGDNR_]
- collision cross section [6]: 442.66 ± 2 Å²
- collision cross section [7]: 493.83 ± 2.3 Å²

Sequence: TPNLYIYSKK [_TPNLYIYSK(Propionyl)K_]
- collision cross section [3]: 384.03 Å²

Sequence: ALLQAKASGK [_ALLQAK(Formyl)ASGK_]
- collision cross section [10]: 340.27 ± 0.87 Å²

Sequence: ANEKTESSSAQQVAVSR [_ANEK(hydroxyisobutyryl)TESSSAQQVAVSR_]
- collision cross section [15]: 442.41 ± 0.29 Å²
- collision cross section [16]: 538.5 ± 0.04 Å²

Sequence: DLTTAGAVTQCYR [_DLTTAGAVTQCY(Nitro (Y))R_]
- collision cross section [17]: 399.32 ± 0.8 Å²
- collision cross section (charge state: 3, modification: Nitro (Y)): 462.24 Å²

Sequence: VGEFSGANKEK [_VGEFSGANK(Formyl)EK_]
- collision cross section [10]: 358.59 ± 1.4 Å²

Sequence: STGLELETPSLVPVKK [_STGLELETPSLVPVK(Formyl)K_]
- collision cross section [10]: 431.64 ± 1.2 Å²
- collision cross section [11]: 516.5 ± 3 Å²

Sequence: VGEFSGANKEK [_VGEFSGANK(Biotin)EK_]
- collision cross section [13]: 386.08 Å²

Sequence: VRLQTTLR [_VR(Citrullination (R))LQTTLR_]
- collision cross section [18]: 344.05 ± 1.2 Å²

Sequence: VLDSGAPIKIPVGPETLGR [_VLDSGAPIK(Crotonyl)IPVGPETLGR_]
- collision cross section [19]: 470.51 ± 1.1 Å²
- collision cross section [20]: 511.83 ± 1.6 Å²

Sequence: VFIGNLNTLVVKKK [_VFIGNLNTLVVK(Gluratylation)KK_]
- collision cross section [21]: 521.05 ± 1.8 Å²

Sequence: FGRGTGLTQPSQR [_FGR(Methyl (R))GTGLTQPSQR_]
- collision cross section (charge state: 3, modification: Methyl (R)): 470.4 ± 2.6 Å²

Sequence: GLPGPPGPQGESR [_GLP(Hydroxyproline)GPPGPQGESR_]
- collision cross section [22]: 363.77 ± 1.6 Å²

Sequence: GTVPDDAVEALADSLGKK [_GTVPDDAVEALADSLGK(Gluratylation)K_]
- collision cross section [23]: 452.53 ± 1.2 Å²
- collision cross section [21]: 538.57 ± 1.8 Å²

Sequence: TLDEILQEKK [_TLDEILQEK(Gluratylation)K_]
- collision cross section [23]: 387.75 ± 3.2 Å²
- collision cross section [21]: 452.89 ± 2.4 Å²

Sequence: SQAGASELGPFSDPR [_SQAGASELGPFS(HexNAc (ST))DPR_]
- collision cross section (charge state: 2, modification: HexNAc (ST)): 425.39 ± 1.3 Å²

Sequence: CQGGQETQEYR [_CQGGQETQEY(Nitro (Y))R_]
- collision cross section [17]: 375.36 ± 1.3 Å²

Sequence: LEQVEKELLR [_LEQVEK(Propionyl)ELLR_]
- collision cross section [3]: 387.92 ± 0.44 Å²

Sequence: GFCFITYTDEEPVKK [_GFCFITYTDEEPVK(Gluratylation)K_]
- collision cross section [23]: 471.64 ± 1.5 Å²

Sequence: DYSSGFGGKYGVQADR [_DYSSGFGGK(Biotin)YGVQADR_]
- collision cross section [13]: 450.72 ± 0.16 Å²
- collision cross section [24]: 509.9 ± 0.34 Å²

Sequence: SITHSTVGSKGEK [_SITHSTVGSK(Propionyl)GEK_]
- collision cross section [3]: 395.17 ± 0.94 Å²
- collision cross section (charge state: 3, modification: Propionyl): 443.25 ± 0.59 Å²

Sequence: LEQVEKELLR [_LEQVEK(Trimethyl (K))ELLR_]
- collision cross section [14]: 387.44 ± 0.62 Å²
- collision cross section [5]: 446.8 ± 1.8 Å²

Sequence: IVFSGNLFQHQEDSKK [_IVFSGNLFQHQEDSK(GlyGly (K))K_]
- collision cross section (charge state: 2, modification: GlyGly (K)): 491.77 Å²
- collision cross section (charge state: 3, modification: GlyGly (K)): 544.77 ± 1.6 Å²

Sequence: DDSFLGKLGGTLAR [_DDSFLGK(Malonyl)LGGTLAR_]
- collision cross section [12]: 411.31 ± 1 Å²
- collision cross section (charge state: 3, modification: Malonyl): 489.57 ± 2.2 Å²

Sequence: VQGGALEDSQLVAGVAFKK [_VQGGALEDSQLVAGVAFK(Methyl (K))K_]
- collision cross section [25]: 497.72 Å²
- collision cross section [26]: 546.3 ± 1.2 Å²

Sequence: IVSGKDYNVTANSK [_IVSGK(Succinyl)DYNVTANSK_]
- collision cross section [8]: 411.09 ± 0.54 Å²

Sequence: VNALKNLQVK [_VNALK(Methyl (K))NLQVK_]
- collision cross section [25]: 371.4 ± 0.45 Å²
- collision cross section [26]: 420.52 ± 3.9 Å²

Sequence: GETASKLQSEISR [_GETASK(Crotonyl)LQSEISR_]
- collision cross section [19]: 388.79 ± 0.79 Å²
- collision cross section [20]: 466.94 ± 1.6 Å²

Sequence: ASEALLKQLK [_ASEALLK(Propionyl)QLK_]
- collision cross section [3]: 375.9 ± 0.65 Å²

Sequence: ILDLKTGTVK [_ILDLK(Propionyl)TGTVK_]
- collision cross section [3]: 359.51 ± 0.33 Å²

Sequence: SDSGKPYYYNSQTK [_SDSGK(Methyl (K))PYYYNSQTK_]
- collision cross section [25]: 422.21 Å²
- collision cross section [26]: 475.71 ± 2.9 Å²

Sequence: ITESVAETAQTIKK [_ITESVAETAQTIK(Trimethyl (K))K_]
- collision cross section [14]: 451.09 ± 1 Å²
- collision cross section [5]: 496.11 ± 2.8 Å²

Sequence: PLRAASPFR [_PLR(Citrullination (R))AASPFR_]
- collision cross section [18]: 334.99 ± 0.26 Å²
- collision cross section [27]: 442.41 Å²

Sequence: STGLELETPSLVPVKK [_STGLELETPSLVPVK(Propionyl)K_]
- collision cross section [3]: 435.15 Å²

Sequence: LGNDFHTNKR [_LGNDFHTNK(Butyryl)R_]
- collision cross section [28]: 377.65 ± 0.22 Å²
- collision cross section [29]: 446.3 ± 2.8 Å²

Sequence: FGTINIVHPKLGSYTK [_FGTINIVHPK(Succinyl)LGSYTK_]
- collision cross section [8]: 474.47 ± 1.3 Å²
- collision cross section [9]: 560.66 ± 0.77 Å²

Sequence: STGLELETPSLVPVKK [_STGLELETPSLVPVK(Butyryl)K_]
- collision cross section [28]: 438.73 ± 0.53 Å²
- collision cross section [29]: 522.48 ± 2.1 Å²

Sequence: SDSGKPYYYNSQTK [_SDSGK(hydroxyisobutyryl)PYYYNSQTK_]
- collision cross section [15]: 428.74 ± 0.3 Å²
- collision cross section [16]: 490.1 ± 3.9 Å²

Sequence: LEEVTGKLQVAR [_LEEVTGK(Butyryl)LQVAR_]
- collision cross section [28]: 398.95 ± 0.23 Å²
- collision cross section [29]: 467.68 Å²

Sequence: HGVYNPNK [_HGVY(Phospho (Y))NPNK_]
- collision cross section [4]: 346.37 ± 0.75 Å²

Sequence: SLFFGGKGAPLQR [_SLFFGGK(Succinyl)GAPLQR_]
- collision cross section [8]: 401.28 ± 0.38 Å²

Sequence: DYILEGEPGK [_DY(Phospho (Y))ILEGEPGK_]
- collision cross section [4]: 357.17 ± 0.065 Å²

Sequence: VFIGNLNTLVVKKK [_VFIGNLNTLVVK(Trimethyl (K))KK_]
- collision cross section [5]: 488.61 ± 1.1 Å²

Sequence: ATVASSTQKFQDLGVK [_ATVASSTQK(Dimethyl (K))FQDLGVK_]
- collision cross section [1]: 461.58 ± 1.2 Å²
- collision cross section [2]: 471.81 ± 2.1 Å²

Sequence: LQLEIDQKK [_LQLEIDQK(Methyl (K))K_]
- collision cross section [25]: 367.47 ± 2.8 Å²
- collision cross section [26]: 429.39 ± 5.2 Å²

Sequence: SEASSEFAKK [_SEASSEFAK(Malonyl)K_]
- collision cross section [12]: 350.91 ± 0.74 Å²

Sequence: AGPNASIISLKSDK [_AGPNASIISLK(Biotin)SDK_]
- collision cross section [13]: 431.71 ± 1.7 Å²
- collision cross section [24]: 469.41 Å²

Sequence: VGTASVLQPVKK [_VGTASVLQPVK(Butyryl)K_]
- collision cross section [28]: 385.91 ± 0.85 Å²

Sequence: TFGKAAGPSLSHTSGGTQSK [_TFGK(Formyl)AAGPSLSHTSGGTQSK_]
- collision cross section [10]: 488.52 ± 0.72 Å²
- collision cross section [11]: 508.22 ± 1.5 Å²

Sequence: LQAAYAGDKADDIQK [_LQAAYAGDK(Butyryl)ADDIQK_]
- collision cross section [28]: 436.77 ± 0.53 Å²
- collision cross section [29]: 489.7 ± 2.9 Å²

Sequence: LQLGTPPPLLAARLVPPR [_LQLGTPPPLLAAR(Citrullination (R))LVPPR_]
- collision cross section [27]: 576.16 ± 0.34 Å²

Sequence: GETASKLQSEISR [_GETASK(Propionyl)LQSEISR_]
- collision cross section [3]: 387.23 ± 0.65 Å²

Sequence: GEPGIPAIPGIR [_GEPGIP(Hydroxyproline)AIPGIR_]
- collision cross section [22]: 346.11 ± 0.79 Å²
